One block for each binder: values may come before it. Ends that are not written are not given here.
Assays:
[1] = target: T1, Recombinant human transferrin receptor (human, UniProt P02786 89-760, limits assumed); experiment: biolayer interferometry (OctetRED 96); biotinylated peptide on streptavidin probe, receptor as analyte; human transferrin receptor
T1 construct: Recombinant protein; also called transferrin receptor (human protein)
Procedure: (§1) Recombinant human transferrin receptor was absorbed onto high binding ELISA plates at 1 μg/mL. […] Retained MTS peptide was detected using streptavidin-HRP and TMB reagent. The absorbance was measured at 450 nm and is proportional to the amount of MTS peptide captured by transferrin receptor. As shown, MTS2_V1-2 binds to […] in a concentration dependent manner which saturates at higher concentrations. By comparison, MTS3_V1-2 and a scrambled control peptide of MTS2_V1-2 show no binding. The binding affinity of MTS2_V1-2 for transferrin receptor was determined by biolayer interferometry on a OctetRED 96 system. The biotinylated MTS2_V1-2 peptide was captured on streptavidin probe. The kon and koff rate were determined at various concentrations of human or mouse transferrin receptor allowing for determination of the dissociation constant.

[2] = target: T1, Recombinant human transferrin receptor; experiment: ELISA: recombinant human transferrin receptor coated at 1 ug/mL, biotinylated peptide titrated, detection with streptavidin-HRP/TMB, absorbance at 450 nm
Procedure: as §1

[3] = target: T2, Mouse transferrin receptor (mouse, UniProt Q62351 89-763, limits assumed); experiment: biolayer interferometry (OctetRED 96); biotinylated peptide on streptavidin probe, receptor as analyte; mouse transferrin receptor
T2 construct: Used as the analyte in BLI; also called mouse receptor
T2 sequence (Q62351 89-763 limits assumed): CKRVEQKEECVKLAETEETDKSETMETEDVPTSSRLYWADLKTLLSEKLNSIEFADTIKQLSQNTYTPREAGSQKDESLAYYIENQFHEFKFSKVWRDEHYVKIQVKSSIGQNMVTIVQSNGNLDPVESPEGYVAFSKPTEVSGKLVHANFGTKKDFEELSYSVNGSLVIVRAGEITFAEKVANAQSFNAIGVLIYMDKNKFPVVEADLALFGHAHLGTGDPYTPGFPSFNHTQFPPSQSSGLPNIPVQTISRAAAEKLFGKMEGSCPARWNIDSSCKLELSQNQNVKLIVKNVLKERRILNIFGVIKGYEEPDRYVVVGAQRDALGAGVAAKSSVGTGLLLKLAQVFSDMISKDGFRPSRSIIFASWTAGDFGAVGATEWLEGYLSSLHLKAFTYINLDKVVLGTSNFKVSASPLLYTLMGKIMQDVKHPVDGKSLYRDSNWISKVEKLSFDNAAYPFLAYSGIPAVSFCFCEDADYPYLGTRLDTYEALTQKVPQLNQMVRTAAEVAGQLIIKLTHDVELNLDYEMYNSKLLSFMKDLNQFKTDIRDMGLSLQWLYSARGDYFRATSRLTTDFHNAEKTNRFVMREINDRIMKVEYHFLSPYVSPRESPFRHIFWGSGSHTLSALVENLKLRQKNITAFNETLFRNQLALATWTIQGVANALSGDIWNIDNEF
Procedure: as §1

T1 sequence (P02786 89-760 limits assumed): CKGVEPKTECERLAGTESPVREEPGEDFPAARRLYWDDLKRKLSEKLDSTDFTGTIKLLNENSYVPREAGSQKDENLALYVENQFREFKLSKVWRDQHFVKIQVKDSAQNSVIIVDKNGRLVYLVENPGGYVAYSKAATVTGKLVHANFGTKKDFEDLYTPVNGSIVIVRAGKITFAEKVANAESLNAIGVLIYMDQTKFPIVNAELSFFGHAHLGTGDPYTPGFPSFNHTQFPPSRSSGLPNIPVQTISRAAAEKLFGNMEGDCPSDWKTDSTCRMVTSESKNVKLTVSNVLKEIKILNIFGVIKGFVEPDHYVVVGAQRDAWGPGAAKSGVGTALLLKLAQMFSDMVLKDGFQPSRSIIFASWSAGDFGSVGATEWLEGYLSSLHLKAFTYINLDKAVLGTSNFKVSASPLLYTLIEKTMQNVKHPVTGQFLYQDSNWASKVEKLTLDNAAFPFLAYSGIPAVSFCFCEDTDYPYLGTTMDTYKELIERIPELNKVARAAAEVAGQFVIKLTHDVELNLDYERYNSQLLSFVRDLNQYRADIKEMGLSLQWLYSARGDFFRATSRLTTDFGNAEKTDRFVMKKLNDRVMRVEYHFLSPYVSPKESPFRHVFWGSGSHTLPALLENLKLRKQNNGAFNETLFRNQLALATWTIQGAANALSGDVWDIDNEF

Kd [1]: 210 nM | EC50 (read off the curve) [2]: ~100 nM | Kd [3]: 12 nM
B1: MTS2_V1-2 (biotinylated dimeric Ac-FPSWTSKNQQWTNQRQ) (peptide)
peptide: Ac-FPSWTSKNQQWTNQRQ
modifications: also: dimer: C-terminus joined through a linker to a dimeric core, biotinylated, place not given here
notes: Biotinylated for the ELISA and for capture on the streptavidin probe in BLI; also called dimer version of MTS2_V1; biotinylated MTS2_V1-2

binding result [2]: no binding (tested: 1000 nM)
B2: MTS3_V1-2 (biotinylated dimeric Ac-SKETYSMNAQRQHERS) (peptide)
peptide: Ac-SKETYSMNAQRQHERS
modifications: also: dimer: C-terminus joined through a linker to a dimeric core, biotinylated, place not given here
notes: Biotinylated for the ELISA; also called dimer version of MTS3_V1; biotinylated MTS3_V1-2

Source: patent US20260159551A1 (SRI INTERNATIONAL, published 2026)
